We go through one molecule from US20190218261A1, “TARGETED ENHANCED DNA DEMETHYLATION” (The Jackson Laboratory, priority 2016, published 2019).

Assay [1] relates to MLH1 protein in HEK293T cells. Description: Western blot of MLH1 protein with anti-hMLH1 monoclonal antibody. The class given is cell-based, human. As to conditions: HEK293T collected 3 day after transfection. Here is the method:
To determine the effect of Casilio-ME targeting on MLH1 protein synthesis, Western blot analyses were performed on total protein extracted from HEK293T transfected cells as well as untransfected HEK293 and AzaC-treated HEK293T cells using anti-hMLH1 monoclonal antibody. […] Casilio-ME-mediated induction of MLH1 synthesis is still remarkable and could be improved by, for example, tilling multiple guide RNAs to augment the range and efficiency of CpG demethylation to achieving better activation of hMLH1 expression.
Western blot analysis. Protein from cell extracts (30 μg) were separated by electrophoresis on 10% SDS-polyacrylamide gels and then transferred to nitrocellulose membranes at 100 V for 1 hour using Bjerrum Schafer-Nielsen Buffer with SDS. Blocked membrane in 5% Blotting-Grade Blocker (BioRad) in TBS-T were then incubated overnight at 4° C. with the indicated antibodies, and the protein bands were detected using Horseradish peroxidase-conjugated secondary antibodies and Clarity Western ECL Substrate according to manufacturer's instructions (BioRad). Gels were imaged using a G:Box (Syngene).
On the technique in general: Immunoblotting shows a protein as a band on a membrane.

The subject of assay [2] is hMLH1 expression (methylation-silenced hMLH1 promoter) in HEK293T cells. Description: hMLH1 mRNA levels by TaqMan qRT-PCR in transfected HEK293T cells. In kind it is cell-based, human. As to the method: To test the system, HEK293T cells were transfected with Casilio-ME components including Ct or Nt-fusion TET1-effector and a combination of 3 or 2 sgRNAs. Relative levels of hMLH1 mRNA were determined in TaqMan assays by using RNA extracted from cells 60 hours post-transfection and GAPDH as endogenous control for normalization of qRT-PCR measurements.
Cell culture and transfection. HEK293T cells were cultivated in Dulbecco's modified Eagle's medium (DMEM)(Sigma) with 10% fetal bovine serum (FBS)(Lonza), 4% Glutamax (Gibco), 1% Sodium Pyruvate (Gibco) and penicillin-streptomycin (Gibco) in an incubator set to 37° C. and 5% CO2. When indicated cells were treated with 2.5 μM or 5 μM 5-Azacytidine (sigma) as indicated with a daily change of medium containing freshly diluted drug. Cells were seeded into 12-well plates at 150,000 cells per well the day before being transfected with 100 ng of dCas9 construct, 100 ng of modified sgRNA construct and 200 ng of PUF-fusion with Attractene transfection reagent according to manufacturer's instructions (Qiagen). In dCas9-direct fusion experiments, cells were transfected with 200 ng dCas9-fusion constructs and 200 ng of modified sgRNA constructs. Transfected cells were harvested 60 hours after transfection, or otherwise indicated, and cell pellets were used for extractions of RNA, genomic DNA and protein.
Quantitative RT-PCR analysis. Cells were harvested, washed with Dulbecco's phosphate-buffered saline (dPBS), centrifuged at 125×g for 5 min and then the flash-frozen pellets were stored at −80° C. RNA was extracted using RNeasy Plus Mini Kit according to the manufacturer's instructions (Qiagen). cDNA libraries were made using Applied Biosystems High Capacity RNA-to-cDNA kit with 200 ng to 1 μg of RNA. TaqMan gene expression assays (Applied Biosystems) were designed using GAPDH (Hs03929097, VIC) as endogenous control and hMLH1 (Hs00179866, FAM) as target. TaqMan Universal Master Mix II, with UNG (Applied Biosystems) was used for Quantitative PCR (qPCR), with 2 μl of diluted cDNA used for each reaction. Activation was analyzed with the Applied Biosystems ViiA7 instrument. Gene expression levels were calculated by “delta delta Ct” algorithm and normalized to control samples.
HEK293T cells were cultivated in Dulbecco's modified Eagle's medium (DMEM) (Sigma) with 10% fetal bovine serum (FBS) (Lonza), 4% Glutamax (Gibco), 1% Sodium Pyruvate (Gibco) and penicillin-streptomycin (Gibco) in an incubator set to 37° C. and 5% CO2. Cells were seeded into 12-well plates at 150,000 cells per well the day before being transfected with 100 ng of dCas9 construct, 100 ng of modified sgRNA construct and 200 ng of PUF-fusion with Attractene transfection reagent according to manufacturer's instructions (Qiagen). Transfected cells were harvested 3 days after transfection, or otherwise indicated, and cell pellets were used for RNA extractions.
Cells were harvested, washed with Dulbecco's phosphate-buffered saline (dPBS), centrifuged at 125×g for 5 min and then the flash-frozen pellets were stored at −80° C. RNA was extracted using RNeasy Plus Mini Kit according to the manufacturer's instructions (Qiagen). cDNA libraries were made using Applied Biosystems High Capacity RNA-to-cDNA kit with 200 ng to 2 μg of RNA. TaqMan gene expression assays (Applied Biosystems) were designed using GAPDH (Hs03929097, VIC) as endogenous control and hMLH1 (Hs00179866, FAM) as target. TaqMan Universal Master Mix II, with UNG (Applied Biosystems) was used for Quantitative PCR (qPCR), with 2 μl of diluted cDNA used for each reaction. Activation was analyzed with the Applied Biosystems ViiA7 instrument. Gene expression levels were calculated by “delta delta Ct” algorithm and normalized to control samples.
(Quantitative PCR measures a nucleic acid by following its amplification.)

B1: GADD45A-PUFa-TET1(CD): GADD45A at N-terminus of PUFa-TET1(CD); SEQ ID NO:104 (protein)
chain: MTLEEFSAGEQKTERMDKVGDALEEVLSKALSQRTITVGVYEAAKLLNVDPDNVVLCLLAADEDDDRDVALQIHFTLIQAFCCENDINILRVSNPGRLAELLLLETDAGPAASEGAEQPPDLHCVLVTNPHSSQWKDPALSQLICFCRESRYMDQWVPVINLPERSRTGAATMIDGGGGSDPKKKRKVDPKKKRKVDPKKKRKVGSTGSRNDGGGGSGGGGSGGGGSGRAGILPPKKKRKVSRGRSRLLEDFRNNRYPNLQLREIAGHIMEFSQDQHGSRFIQLKLERATPAERQLVFNEILQAAYQLMVDVFGNYVIQKFFEFGSLEQKLALAERIRGHVLSLALQMYGSRVIEKALEFIPSDQQNEMVRELDGHVLKCVKDQNGNHVVQKCIECVQPQSLQFIIDAFKGQVFALSTHPYGCRVIQRILEHCLPDQTLPILEELHQHTEQLVQDQYGNYVIQHVLEHGRPEDKSKIVAEIRGNVLVLSQHKFASNVVEKCVTHASRTERAVLIDEVCTMNDGPHSALYTMMKDQYANYVVQKMIDVAEPGQRKIVMHKIRPHIATLRKYTYGKHILAKLEKYYMKNGVDLGDPKKKRKVDPKKKRKVGGRGGGGSGGGGSGGGGSGPAELPTCSCLDRVIQKDKGPYYTHLGAGPSVAAVREIMENRYGQKGNAIRIEIVVYTGKEGKSSHGCPIAKWVLRRSSDEEKVLCLVRQRTGHHCPTAVMVVLIMVWDGIPLPMADRLYTELTENLKSYNGHPTDRRCTLNENRTCTCQGIDPETCGASFSFGCSWSMYFNGCKFGRSPSPRRFRIDPSSPLHEKNLEDNLQSLATRLAPIYKQYAPVAYQNQVEYENVARECRLGSKEGRPFSGVTACLDFCAHPHRDIHNMNNGSTVVCTLTREDNRSLGVIPQDEQLHVLPLYKLSDTDEFGSKEGMEAKIKSGAIEVLAPRRKKRTCFTQPVPRSGKKRAAMMTEVLAHKIRAVEKKPIPRIKRKNNSTTTNNSKPSSLPTLGSNTETVQPEVKSETEPHFILKSSDNTKTYSLMPSAPHPVKEASPGFSWSPKTASATPAPLKNDATASCGFSERSSTPHCTMPSGRLSGANAAAADGPGISQLGEVAPLPTLSAPVMEPLINSEPSTGVTEPLTPHQPNHQPSFLTSPQDLASSPMEEDEQHSEADEPPSDEPLSDDPLSPAEEKLPHIDEYWSDSEHIFLDANIGGVAIAPAHGSVLIECARRELHATTPVEHPNRNHPTRLSLVFYQHKNLNKPQHGFELNKIKFEAKEAKNKKMKASEQKDQAANEGPEQSSEVNELNQIPSHKALTLTHDNVVTVSPYALTHVAGPYNHWVID
B1: the “MLH1 protein amount by Western blot (whole cell extracts)” value in assay [1] is “higher protein amounts”. Further, in assay [2] (GADD45A two-in-one effectors, HEK293T, TaqMan), the “enhancement of hMLH1 expression relative to PUFa-TET1(CD) alone” value is recorded as “approximately 9 fold”. Besides, the “ranking of activation among GADD45A and TET1(CD) fusion configurations” value in assay [2] (methylation-silenced hMLH1) is “highest activity”.
